From IntAct's records for PubMed 23085988

B1: Sorting nexin-8 (Homo sapiens), Q9Y5X2 (parent)
chain: MTGRAMDPLPAAAVGAAAEAEADEEADPPASDLPTPQAIEPQAIVQQVPAPSRMQMPQGNPLLLSHTLQELLARDTVQVELIPEKKGLFLKHVEYEVSSQRFKSSVYRRYNDFVVFQEMLLHKFPYRMVPALPPKRMLGADREFIEARRRALKRFVNLVARHPLFSEDVVLKLFLSFSGSDVQNKLKESAQCVGDEFLNCKLATRAKDFLPADIQAQFAISRELIRNIYNSFHKLRDRAERIASRAIDNAADLLIFGKELSAIGSDTTPLPSWAALNSSTWGSLKQALKGLSVEFALLADKAAQQGKQEENDVVEKLNLFLDLLQSYKDLCERHEKGVLHKHQRALHKYSLMKRQMMSATAQNREPESVEQLESRIVEQENAIQTMELRNYFSLYCLHQETQLIHVYLPLTSHILRAFVNSQIQGHKEMSKVWNDLRPKLSCLFAGPHSTLTPPCSPPEDGLCPH

Variants of: B1
Conditions: with snx1_human SNX1, Q13596
snx1_human SNX1, Q13596, sequence (Q13596 whole entry): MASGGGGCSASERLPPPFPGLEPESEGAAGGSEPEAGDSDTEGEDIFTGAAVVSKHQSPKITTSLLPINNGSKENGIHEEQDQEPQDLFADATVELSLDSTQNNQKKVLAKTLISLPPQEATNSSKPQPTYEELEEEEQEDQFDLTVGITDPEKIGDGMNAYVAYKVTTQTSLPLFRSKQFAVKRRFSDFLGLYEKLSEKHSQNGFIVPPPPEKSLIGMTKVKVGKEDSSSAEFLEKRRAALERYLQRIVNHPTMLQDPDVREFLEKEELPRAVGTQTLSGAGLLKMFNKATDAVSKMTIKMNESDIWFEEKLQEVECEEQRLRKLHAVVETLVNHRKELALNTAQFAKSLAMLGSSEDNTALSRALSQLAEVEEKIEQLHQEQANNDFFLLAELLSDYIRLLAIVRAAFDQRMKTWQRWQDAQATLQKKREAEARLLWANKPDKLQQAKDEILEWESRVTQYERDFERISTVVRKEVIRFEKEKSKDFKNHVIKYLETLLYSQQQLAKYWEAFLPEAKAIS

Row | Variant | effect of a mutation on the interaction
1 | MTGRAMDPLPAAAVGAAAEAEADEEADPPASDLPTPQAIEPQAIVQQVPAPSRMQMPQGNPLLLSHTLQELLARDTVQVELIPEKKGLFLKHVEYEVSSQRFKSSVYRRYNDFVVFQEMLLHKFPYRMVPALPPKRMLGADREFIEARRRALKRFVNLVARHPLFSEDVVLKLFLSFSGSDVQNKLKESAQCVGDEFLNCKLATRAKDFLPADIQAQFAISRELIRNIYNSFHKLRDRAERIASRAIDNAADLLIFGKELSAIGSDTTPLPSWAALNSSTWGSLKQALKGLSVEFALLADKAAQQGKQEINDVVEKLNLFLDLLQSYKDLCERHEKGVLHKHQRALHKYSLMKRQMMSATAQNREPESVEQLESRIVEQENAIQTMELRNYFSLYCLHQETQLIHVYLPLTSHILRAFVNSQIQGHKEMSKVWNDLRPKLSCLFAGPHSTLTPPCSPPEDGLCPH [E310I] | increasing interaction
